Holding throughout (conditions): both partners purified
The target of experiment [1] is T1, ADO-I109A, biotinylated (pQE80L-Navi-ADO) (human, UniProt Q96SZ5 1-270, I109A, biotin on the Avi tag).
T1 construct: Tag as in Dm1; source: E. coli Rosetta2(DE3), purified (Ni-NTA, SEC); not shown: Avi tag, N-terminal, kept; His6, N-terminal, kept
T1 sequence (looked up): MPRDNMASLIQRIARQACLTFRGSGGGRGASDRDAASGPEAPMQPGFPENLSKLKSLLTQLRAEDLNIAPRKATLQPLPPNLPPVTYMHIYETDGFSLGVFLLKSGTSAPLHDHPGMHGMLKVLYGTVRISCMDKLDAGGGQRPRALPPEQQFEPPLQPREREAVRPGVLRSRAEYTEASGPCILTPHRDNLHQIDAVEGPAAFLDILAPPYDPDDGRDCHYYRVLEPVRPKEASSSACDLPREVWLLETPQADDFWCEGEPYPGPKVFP
The experiment can be described thus: SPR; multi-cycle, equilibrium steady state affinity 1:1 binding model; biotinylated ADO or variant immobilised on a Biotin CAP chip (~2500-3000 RU), peptide injected; 4 °C; 20 mM HEPES pH 7.5, 500 mM NaCl, 10 mM DTT, 0.1% (v/v) tween-20; 50 μL/minute. The method in brief:
(§1)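 Biotinylated full-length human ADO (wild type or engineered forms) was made in E. coli with a His tag, then purified by nickel affinity and gel filtration. It was captured on a Biotin CAP chip at about 2500–3000 RU in a Biacore T200, and peptides were flowed over it. The run was at 4 °C in HEPES pH 7.5 buffer with 500 mM NaCl, DTT and tween-20, at 50 μL/minute. Kd came from a 1:1 steady-state fit of multi-cycle equilibrium responses.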

Experiment [2] concerns the target T2, ADO-Y212F, biotinylated (pQE80L-Navi-ADO) (human, UniProt Q96SZ5 1-270, Y212F, biotin on the Avi tag).
T2 construct: Tag as in Dm1; source: E. coli Rosetta2(DE3), purified (Ni-NTA, SEC); not shown: Avi tag, N-terminal, kept; His6, N-terminal, kept
T2 sequence (looked up): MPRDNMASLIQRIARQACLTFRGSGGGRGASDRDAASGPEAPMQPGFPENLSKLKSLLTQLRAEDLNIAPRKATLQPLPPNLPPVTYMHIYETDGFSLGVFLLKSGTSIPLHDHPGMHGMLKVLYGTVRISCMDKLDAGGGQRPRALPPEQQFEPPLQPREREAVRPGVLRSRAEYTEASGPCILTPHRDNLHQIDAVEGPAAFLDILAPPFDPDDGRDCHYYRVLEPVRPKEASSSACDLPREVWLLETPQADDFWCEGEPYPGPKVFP
The description is as above. The method in brief: as §1

The target of experiment [3] is T3, ADO-Y222A, biotinylated (pQE80L-Navi-ADO) (human, UniProt Q96SZ5 1-270, Y222A, biotin on the Avi tag).
T3 construct: Tag as in Dm1; source: E. coli Rosetta2(DE3), purified (Ni-NTA, SEC); not shown: Avi tag, N-terminal, kept; His6, N-terminal, kept
T3 sequence (looked up): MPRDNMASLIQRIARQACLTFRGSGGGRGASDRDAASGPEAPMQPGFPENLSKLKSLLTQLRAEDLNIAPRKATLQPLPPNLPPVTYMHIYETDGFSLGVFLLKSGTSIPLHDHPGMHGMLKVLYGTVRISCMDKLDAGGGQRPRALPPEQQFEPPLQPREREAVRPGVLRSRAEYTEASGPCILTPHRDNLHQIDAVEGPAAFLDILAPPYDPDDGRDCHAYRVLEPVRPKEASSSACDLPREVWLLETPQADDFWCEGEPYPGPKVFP
Described as above. The method in brief: as §1

In experiment [4] the target is T4, ADO-D206E, biotinylated (pQE80L-Navi-ADO) (human, UniProt Q96SZ5 1-270, D206E, biotin on the Avi tag).
T4 construct: Tag as in Dm1; source: E. coli Rosetta2(DE3), purified (Ni-NTA, SEC); not shown: Avi tag, N-terminal, kept; His6, N-terminal, kept
T4 sequence (looked up): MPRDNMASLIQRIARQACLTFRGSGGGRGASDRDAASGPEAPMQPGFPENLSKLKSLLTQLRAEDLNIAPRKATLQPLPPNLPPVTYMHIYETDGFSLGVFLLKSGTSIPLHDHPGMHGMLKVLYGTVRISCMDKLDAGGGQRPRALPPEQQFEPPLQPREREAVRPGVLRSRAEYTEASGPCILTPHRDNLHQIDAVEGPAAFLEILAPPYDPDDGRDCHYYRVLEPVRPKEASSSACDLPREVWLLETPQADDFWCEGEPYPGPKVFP
Nature of the experiment: SPR; single-cycle kinetics (SCK), 1:1 binding model; biotinylated ADO or variant immobilised on a Biotin CAP chip, peptide injected at 25.6, 64, 160, 400, 1000 nM; 4 °C; 20 mM HEPES pH 7.5, 500 mM NaCl, 10 mM DTT, 0.1% (v/v) tween-20; 50 μL/minute.

Experiment [5] concerns the target T5, ADO-F256A, biotinylated (pQE80L-Navi-ADO) (human, UniProt Q96SZ5 1-270, F256A, biotin on the Avi tag).
T5 construct: Tag as in Dm1; source: E. coli Rosetta2(DE3), purified (Ni-NTA, SEC); not shown: Avi tag, N-terminal, kept; His6, N-terminal, kept
T5 sequence (looked up): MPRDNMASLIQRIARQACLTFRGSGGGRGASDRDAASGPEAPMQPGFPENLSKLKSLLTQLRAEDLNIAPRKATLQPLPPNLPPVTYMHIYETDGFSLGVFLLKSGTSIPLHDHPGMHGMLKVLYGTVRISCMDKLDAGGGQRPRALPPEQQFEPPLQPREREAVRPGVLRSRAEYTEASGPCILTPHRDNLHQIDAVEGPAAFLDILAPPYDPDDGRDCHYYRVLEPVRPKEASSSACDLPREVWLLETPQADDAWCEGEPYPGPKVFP
The description is as above.

From publication PMC12098869, “An mRNA-display derived cyclic peptide scaffold reveals the substrate binding interactions of an N-terminal cysteine oxidase” (Nature Communications, 2025) come the findings set out here.

B1: RGS5_(2-15), synthetic peptide corresponding to the methionine excised N-terminus of RGS5, residues 2 to 15 (peptide, UniProt O15539 2-15, looked up)
peptide: CKGLAALPHSCLER
notes: Regulator of G-protein signalling 5 (RGS5), residues 2 to 15, N-terminal Cys; also called RGS5 peptide; source: synthetic peptide
By Kd is commonly meant a measure of binding affinity in units of concentration. A lower Kd goes with a tighter complex. For B1, the Kd came out at 1300 nM in experiment [1]; 24000 nM in experiment [2]; 4700 nM in experiment [3]; 1100 nM in experiment [4]; 730 nM in experiment [5].

B2: IL32_(2-15), synthetic peptide corresponding to the methionine excised N-terminus of IL32, residues 2-15 (peptide, UniProt P24001 2-15, looked up)
peptide: CFPKVLSDDMKKLK
notes: Interleukin 32 (IL32), residues 2-15, N-terminal Cys; also called IL32 peptide; source: synthetic peptide
Regarding B2, the figures for the Kd in experiment [1], in experiment [2] and in experiment [3] were 16000 nM, 9200 nM and 1000 nM, respectively.
